Among the data in publication PMC12724345 are response (fraction of total signal) values, retold here.

Test [1] addresses Arabidopsis SUMO1^ΔGG fused to CLuc (split-luciferase assay) (UniProt P55852). Kind of test: split-luciferase complementation assay in planta. The settings on record: Rep^sim NLuc + CLuc SUMO1^ΔGG; n = 12; parent: est. 0.29; read off a plot.
In test [2] the target is Arabidopsis SCE1 fused to CLuc (split-luciferase assay) (UniProt Q42551). Nature of the test: split-luciferase complementation assay in planta. The settings on record: Rep^sim NLuc + CLuc SCE1; n = 12; parent: est. 0.36; read off a plot.
Sequence of UniProt Q42551 (Q42551 whole entry, the tested form may be a part): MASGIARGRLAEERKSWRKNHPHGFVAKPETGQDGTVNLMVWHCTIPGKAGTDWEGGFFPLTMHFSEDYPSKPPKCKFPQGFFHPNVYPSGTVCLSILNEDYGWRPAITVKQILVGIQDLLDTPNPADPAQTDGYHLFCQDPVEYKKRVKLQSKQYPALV

Sequence of UniProt P55852 (P55852 1-91, stated change not applied): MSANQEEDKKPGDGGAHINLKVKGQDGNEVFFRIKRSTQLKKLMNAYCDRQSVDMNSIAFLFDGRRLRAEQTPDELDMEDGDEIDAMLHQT

As to “Rep of TYLCV fused to NLuc (split-luciferase assay) I215A; V216A; I217A”, the response (fraction of total signal) in test [1] is 0.08; in test [2], 0.075.
